Patent US20190032033A1

Legend:
Assay in all cases: cell-based or functional assay
[1] = biological target: β84 (minimally thermostabilised β1AR construct of Example 2) (UniProt P07700)
[2] = biological target: wild type A2AR in HEK293 cell membranes (UniProt P29274)
[3] = biological target: β1AR-84 (minimally thermostabilised turkey β1 adrenergic receptor construct) (turkey) (UniProt P07700)
[4] = biological target: β1AR-WT (wild type-like turkey β1 adrenergic receptor construct) (turkey) (UniProt P07700)
β1AR-WT (wild type-like turkey β1 adrenergic receptor construct) (turkey), sequence (P07700 other isoform, or with tags, fused parts or gaps limits assumed): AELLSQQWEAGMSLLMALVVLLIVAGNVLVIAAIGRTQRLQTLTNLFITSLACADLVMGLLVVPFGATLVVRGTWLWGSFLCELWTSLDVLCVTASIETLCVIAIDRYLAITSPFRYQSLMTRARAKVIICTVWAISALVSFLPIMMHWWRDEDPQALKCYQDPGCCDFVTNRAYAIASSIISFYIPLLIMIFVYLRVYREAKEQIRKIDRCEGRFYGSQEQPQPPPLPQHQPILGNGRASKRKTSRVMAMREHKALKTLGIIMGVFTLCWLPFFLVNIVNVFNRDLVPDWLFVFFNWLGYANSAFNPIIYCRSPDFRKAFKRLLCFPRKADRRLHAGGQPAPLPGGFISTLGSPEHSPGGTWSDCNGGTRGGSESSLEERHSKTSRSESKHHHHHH

[5] = biological target: near wild type β1AR construct (β6) (UniProt P07700)
near wild type β1AR construct (β6), sequence (P07700 33-424): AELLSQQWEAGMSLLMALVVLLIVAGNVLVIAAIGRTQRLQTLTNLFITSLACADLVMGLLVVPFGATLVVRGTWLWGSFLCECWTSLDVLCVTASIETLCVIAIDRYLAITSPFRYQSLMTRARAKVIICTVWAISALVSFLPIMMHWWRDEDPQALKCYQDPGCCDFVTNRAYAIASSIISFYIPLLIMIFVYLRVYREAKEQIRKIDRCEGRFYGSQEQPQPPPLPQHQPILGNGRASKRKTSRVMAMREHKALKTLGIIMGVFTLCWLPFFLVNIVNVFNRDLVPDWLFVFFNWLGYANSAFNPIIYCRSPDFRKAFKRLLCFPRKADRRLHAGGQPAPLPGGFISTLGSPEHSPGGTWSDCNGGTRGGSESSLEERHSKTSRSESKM

β1AR-84 (minimally thermostabilised turkey β1 adrenergic receptor construct) (turkey), sequence (P07700 other isoform, or with tags, fused parts or gaps): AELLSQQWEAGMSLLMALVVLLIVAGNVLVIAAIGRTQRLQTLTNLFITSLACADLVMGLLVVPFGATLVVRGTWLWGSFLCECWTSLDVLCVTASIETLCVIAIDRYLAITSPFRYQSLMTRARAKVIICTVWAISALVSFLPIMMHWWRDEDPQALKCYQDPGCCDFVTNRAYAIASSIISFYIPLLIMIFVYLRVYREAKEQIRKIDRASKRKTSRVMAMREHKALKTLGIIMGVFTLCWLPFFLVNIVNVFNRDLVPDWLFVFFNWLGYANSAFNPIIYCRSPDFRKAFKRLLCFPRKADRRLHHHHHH
wild type A2AR in HEK293 cell membranes, sequence (P29274 whole entry): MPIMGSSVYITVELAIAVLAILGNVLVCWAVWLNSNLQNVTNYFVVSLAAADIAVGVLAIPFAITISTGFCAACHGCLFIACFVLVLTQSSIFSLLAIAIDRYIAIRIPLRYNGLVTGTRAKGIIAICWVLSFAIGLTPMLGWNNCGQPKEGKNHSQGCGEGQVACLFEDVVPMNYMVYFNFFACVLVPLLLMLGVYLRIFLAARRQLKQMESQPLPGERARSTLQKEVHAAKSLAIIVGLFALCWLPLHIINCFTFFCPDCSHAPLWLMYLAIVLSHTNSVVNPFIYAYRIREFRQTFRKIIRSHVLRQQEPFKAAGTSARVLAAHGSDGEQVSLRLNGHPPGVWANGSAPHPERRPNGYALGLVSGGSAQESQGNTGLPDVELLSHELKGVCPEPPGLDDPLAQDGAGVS

Substance	isoprenaline IC50 of β84, 4 °C [1] [nM]	isoprenaline IC50 of β84, 20 °C [1] [nM]	further results
GTPase domain with βγ-dimer and Nb35 (from UniProt P62873 2-340; P59768 2-71)	–	–	isoprenaline IC50 of β84, 20 °C (alone […] µM) [1]: 0.206 µM
Gs-Nb35 (non-lipidated heterotrimeric Gs with nanobody Nb35) (from UniProt P62873 2-340; P59768 2-71)	–	–	NECA Ki of A2AR in HEK293 membranes, 100 mM NaCl (alone 4.6 µM) [2]: 340 nM; fold shift of isoprenaline Ki of β1AR-84 [3]: 163 fold; isoprenaline Ki of DDM-solubilised β1AR-84 (alone […] µM) [3]: 0.023 µM; isoprenaline Ki of β1AR-84, 20 °C (alone […] nM) [3]: 16 nM; apparent Tm of β1AR-WT complex in DDM (receptor alone 25.9 °C) [4]: 35.8 °C; apparent Tm of β1AR-WT complex in decylmaltoside (receptor alone 20.4 °C) [4]: 31.1 °C; apparent Tm of β1AR-WT complex in nonylglucoside (uncoupled receptor did not survive) [4]: 19 °C; apparent Tm of β1AR-WT complex in octylglucoside (uncoupled receptor did not survive) [4]: 13.6 °C; fold shift of isoprenaline Ki of β1AR-WT [4]: 5.9 fold; isoprenaline Ki of membrane-embedded β1AR-WT (alone 40 nM) [4]: 6.8 nM; norepinephrine Ki of β1AR-WT (alone 158 nM) [4]: 0.36 nM; isoprenaline IC50 of β84 (alone […] µM) [1]: 0.068 µM
Gαs GTPase domain A48D (from UniProt P63092 45-394)	185	1800	–
Gαs GTPase domain A249D (from UniProt P63092 45-394)	15	53	–
Gαs GTPase domain A249S (from UniProt P63092 45-394)	146	1600	–
Gαs GTPase domain C237E (from UniProt P63092 45-394)	93	1900	–
Gαs GTPase domain G49D (from UniProt P63092 45-394)	37	428	–
Gαs GTPase domain G49D/E50N (from UniProt P63092 45-394)	44	364	–
Gαs GTPase domain G226A (from UniProt P63092 45-394)	127	1200	–
Gαs GTPase domain H41I (from UniProt P63092 45-394)	58	589	–
Gαs GTPase domain H41V (from UniProt P63092 45-394)	77	737	–
Gαs GTPase domain L272D (from UniProt P63092 45-394)	10	464	–
Gαs GTPase domain N279D/Q235K (from UniProt P63092 45-394)	102	2000	–
Gαs GTPase domain N279E/I235K (from UniProt P63092 45-394)	1200	2800	–
Gαs GTPase domain R199D (from UniProt P63092 45-394)	109	1800	–
Gαs GTPase domain R201A (from UniProt P63092 45-394)	46	2200	–

Substance	isoprenaline IC50 of β84, 4 °C [1] [nM]	isoprenaline IC50 of β84, 20 °C [1] [nM]	further results
Gαs GTPase domain R356S (from UniProt P63092 45-394)	229	2800	–
Gαs GTPase domain S252D (from UniProt P63092 45-394)	21	142	–
Gαs GTPase domain S252E (from UniProt P63092 45-394)	57	575	–
Gαs GTPase domain S275D (from UniProt P63092 45-394)	136	2000	–
Gαs GTPase domain S286C/I382C (from UniProt P63092 45-394)	4200	7000	–
Gαs GTPase domain V36D/N218K (from UniProt P63092 45-394)	115	–	–
Gαs GTPase domain V36D/N218K/T40A (from UniProt P63092 45-394)	551	2400	–
Gαs GTPase domain V36D/N218K/T40D (from UniProt P63092 45-394)	427	3200	–
Gαs GTPase domain Y37R/R42D (from UniProt P63092 45-394)	2300	–	–
Gαs GTPase domain parental construct (Example 2) (from UniProt P63092 45-394)	136	–	–
Gαs GTPase domain Δ254-263	31	30	–
Gαs GTPase domain Δ254-263/Y253P	23	142	–
Nb80 (VHH)	–	–	fold increase of isoprenaline affinity of the near wild-type β1AR [5]: 3.5 fold; isoprenaline IC50 of β6 (alone […] nM) [5]: 51 nM; fold shift of isoprenaline Ki of β1AR-84 [3]: 93 fold; isoprenaline Ki of DDM-solubilised β1AR-84 (alone […] µM) [3]: 0.083 µM; isoprenaline Ki of β1AR-84, 20 °C (alone […] nM) [3]: 28 nM; apparent Tm of β1AR-WT complex in DDM (receptor alone 25.9 °C) [4]: 32 °C; apparent Tm of β1AR-WT complex in decylmaltoside (receptor alone 20.4 °C) [4]: 28.6 °C; apparent Tm of β1AR-WT complex in nonylglucoside (uncoupled receptor did not survive) [4]: 16.7 °C; apparent Tm of β1AR-WT complex in octylglucoside (uncoupled receptor did not survive) [4]: 14.3 °C; fold shift of isoprenaline Ki of β1AR-WT [4]: 6.9 fold; isoprenaline Ki of membrane-embedded β1AR-WT (alone 40 nM) [4]: 5.8 nM; norepinephrine Ki of β1AR-WT (alone 158 nM) [4]: 0.7 nM; isoprenaline IC50 of β84 (alone […] µM) [1]: 0.016 µM
isolated GTPase domain of Gαs (Example 2, FIG. 14)	–	–	isoprenaline IC50 of β84, 4 °C (alone […] µM) [1]: 0.253 µM; isoprenaline IC50 of β84, 20 °C (alone […] µM) [1]: 3.4 µM
non-lipidated heterotrimeric Gs (Gαsβ1γ2) (from UniProt P62873 2-340; P59768 2-71)	–	–	fold shift of isoprenaline Ki of β1AR-84 [3]: 9.6 fold; isoprenaline Ki of β1AR-84, 4 °C (alone […] nM) [3]: 419 nM; isoprenaline Ki of β1AR-84, 20 °C (alone […] nM) [3]: 271 nM; isoprenaline Ki of β1AR-84 with 0.25 mM GTPγS (alone 3.0 µM) [3]: 2700 nM; fold shift of isoprenaline Ki of β1AR-WT [4]: 2.4 fold; isoprenaline Ki of membrane-embedded β1AR-WT (alone 40 nM) [4]: 17 nM; isoprenaline IC50 of β84 (alone […] µM) [1]: 1.4 µM

Now from value to substance, other results behind:

isoprenaline IC50 of β84, 4 °C [1] [nM]	isoprenaline IC50 of β84, 20 °C [1] [nM]	Substance	further results
104	582	Gαs GTPase domain A249E (from UniProt P63092 45-394)	–
510	4400	Gαs GTPase domain D240G (from UniProt P63092 45-394)	–
2400	–	Gαs GTPase domain D295N (from UniProt P63092 45-394)	–
55	1100	Gαs GTPase domain E50N (from UniProt P63092 45-394)	–
250	1300	Gαs GTPase domain F208N (from UniProt P63092 45-394)	–
285	3900	Gαs GTPase domain H41L (from UniProt P63092 45-394)	–
307	1800	Gαs GTPase domain H41M (from UniProt P63092 45-394)	–
4300	–	Gαs GTPase domain L270N/I348N (from UniProt P63092 45-394)	–
42	110	Gαs GTPase domain L272E (from UniProt P63092 45-394)	–
108	1900	Gαs GTPase domain R199K (from UniProt P63092 45-394)	–
161	3300	Gαs GTPase domain R356D (from UniProt P63092 45-394)	–
462	–	Gαs GTPase domain S54N (from UniProt P63092 45-394)	–
584	4000	Gαs GTPase domain W234A/F238A (from UniProt P63092 45-394)	–
81	2000	Gαs GTPase domain Y37D (from UniProt P63092 45-394)	–
34	799	Gαs GTPase domain Δ227-230/GG linker	–
1300	–	Gαs GTPase domain Δ255-262/G linker	–
